What was measured:
[1] = target: G115 (Vγ9Vδ2) γδ TCR/CD3 complex, full length (human) (UniProt A0JD36); assay: cryo-EM structure
[2] = target: 9C2 (Vγ5Vδ1) γδ TCR/CD3 complex, full length (human) (UniProt B7Z8K6); assay: cryo-EM structure

Chain of UniProt A0JD36 (A0JD36 whole entry, looked up, stated change not applied, one chain of several): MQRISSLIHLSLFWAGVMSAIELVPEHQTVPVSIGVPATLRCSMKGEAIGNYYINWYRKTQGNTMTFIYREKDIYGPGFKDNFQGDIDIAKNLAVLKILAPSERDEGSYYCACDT

Row | Substance | stoichiometry N [1] | stoichiometry N [2]
1 | OKT3 Fab | 2 | 
2 | 9C2 (Vγ5Vδ1) γδ TCR/CD3 complex, full length (from UniProt B7Z8K6;P0CF51;P07766;P09693;P04234;P20963) |  | 2

From paper doi:10.1101/2024.07.19.604350
